According to publication PMC8169799 (iScience, 2021):

Molecular target: the molecule itself
Assay: cryo-EM structure

B1: copper efflux regulator (CueR), Escherichia coli (natural protein, E. coli)
chain: MNISDVAKITGLTSKAIRFYEEKGLVTPPMRSENGYRTYTQQHLNELTLLRQARQVGFNLEESGELVNLFNDPQRHSADVKRRTLEKVAEIERHIEELQSMRDQLLALANACPGDDSADCPIIENLSGCCHHRAG
- stoichiometry N: 2
